Assay results as given in patent publication US10739331B2, “OMA1 activity assay” (BioVentures, LLC, priority 2017, dated 2020).
“Also recorded” adds a separate entry of the source. One block for each molecule: values may come before it. Non-standard residues stand in square brackets, D forms with d. Residues, ends and D or L forms follow the SMILES beside them. No end group written: not given here. *: point of attachment. Sta = CC(C)C[C@H](N)[C@@H](O)CC(=O)O; Mca = COc1ccc2c(CC(=O)*)cc(=O)oc2c1; DNP = 2,4-Dinitrophenyl, quencher; Isovaleryl = CC(C)CC(=O)*

Tests used:
OMA1 [1] = experiment: Live-cell OMA1 activity assay with mitochondrial targeted FRET peptide; assay type: cell-based, rat; conditions: NRK-52E cells, FRET peptide 10 μM, 4 hr, antimycin A 50 nM, 30 min, preliminary
Description: Live-Cell OMA1 activity assay: To deliver the FRET OMA1 peptide to mitochondria in living cells, we utilized a modified short Szeto-Schiller (SS) peptide sequence1 attached to the amino terminus of the 8 amino acid FRET sequence (custom synthesized by LifeTein) (FIG. 5A). […] Small molecule/peptide library subsets or novel peptides will be screened for inhibitory activity using this live-cell OMA1 assay.
Live-cell OMA1 activity assay preliminary results: To deliver the FRET peptide to mitochondria in living cells, we have used a modified short Szeto-Schiller (SS) mitochondrial targeting peptide sequence1 (d-arginine, dimethyl tyrosine, ornithine, tryptophan) attached to the amino terminus of the eight amino acid FRET sequence (FIG. 5A). Normal rat kidney (NRK-52E; ATCC No. CRL-1571) cells were plated on black 96-well cell culture plates (10,000 cells/well). The next day, the cell permeable peptide was added to cells (10 μM; 4 hr; 37° C.) followed by exposure to ATP depletion/antimycin A (50 nM; 30 min) and OMA1 activity measured (ex/em 320/405) using a plate reader. […] Future studies will optimize the mitochondrial targeting sequence so that the highest efficiency of mitochondrial localaization without altering mitochondrial oxidant levels will be achieved, which we predict will yield the highest sensitivity for the live-cell OMA1 activity assay.

OMA1 [2] = biological target: T1, OMA1 (Homo sapiens, UniProt Q96E52); conditions: prior studies (refs 12, 24); cited from earlier work
T1 sequence (Q96E52 144-524): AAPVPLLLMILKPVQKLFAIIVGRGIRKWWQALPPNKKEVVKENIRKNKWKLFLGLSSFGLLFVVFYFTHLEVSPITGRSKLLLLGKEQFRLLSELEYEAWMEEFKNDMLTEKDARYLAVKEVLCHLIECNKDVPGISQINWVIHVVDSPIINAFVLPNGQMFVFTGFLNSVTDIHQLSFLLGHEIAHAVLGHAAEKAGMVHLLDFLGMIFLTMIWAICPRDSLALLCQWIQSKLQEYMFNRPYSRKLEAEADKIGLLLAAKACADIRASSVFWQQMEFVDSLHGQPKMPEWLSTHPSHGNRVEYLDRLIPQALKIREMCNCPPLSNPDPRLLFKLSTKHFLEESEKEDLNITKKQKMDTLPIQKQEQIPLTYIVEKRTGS

OMA1 [3] = biological target: T2, OMA1 (Rattus norvegicus, UniProt D3ZS74); experiment: OMA1 activity assay (OPA1 FRET substrate) in NRK cell lysates; assay type: biochemical; conditions: for decrease of OMA1 activity compared to the standard substrate sequence: modified 8-mer FRET substrate vs AFRATDHG
T2 construct: Renal cell lysates from normal rat kidney (NRK) epithelial cell line were prepared; endogenous in cells; host or cells: NRK-52E (ATCC CRL-1571), RIPA lysate, 5 µg protein per well
T2 sequence (D3ZS74 123-504): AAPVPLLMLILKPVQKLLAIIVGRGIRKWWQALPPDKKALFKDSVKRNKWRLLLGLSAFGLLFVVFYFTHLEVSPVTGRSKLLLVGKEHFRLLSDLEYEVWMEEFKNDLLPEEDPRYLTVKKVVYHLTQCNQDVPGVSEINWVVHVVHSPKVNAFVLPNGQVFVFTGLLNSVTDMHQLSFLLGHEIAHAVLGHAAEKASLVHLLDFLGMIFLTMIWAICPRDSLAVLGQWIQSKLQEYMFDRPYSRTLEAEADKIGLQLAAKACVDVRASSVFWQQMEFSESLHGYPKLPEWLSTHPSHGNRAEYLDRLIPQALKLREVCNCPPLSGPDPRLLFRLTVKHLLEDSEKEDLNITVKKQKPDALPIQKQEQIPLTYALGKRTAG
Procedure: Normal rat kidney cells (NRK-52E; ATCC No. CRL-1571) were maintained in a humidified incubator with 5% CO2, 95% air at 37° C. in DMEM containing 5% fetal bovine serum. Renal cell lysates from normal rat kidney (NRK) epithelial cell line were prepared by using radioimmunoprecipitation assay (RIPA) buffer (Pierce) with 1 mM PMSF (Sigma), 1.2 mM Na3VO4 (Sigma), 2.5 mM NaF (Sigma), 1 mM DTT (Sigma), 1× of Halt Protease & Phosphatase inhibitor cocktail (Thermo Scientific), and 5 mM EDTA (Thermo Scientific). Protein concentrations were determined by Coomassie Plus Protein Assay Reagent (Pierce).
Our OMA1 activity assay utilizes an 8-mer peptide derived from the cleavage sequence of OPA1, which is reported to be specific of OMA1 which is referred as the OPA1 FRET substrate. The peptide contains a fluorogenic MCA moiety on the N-terminus and a DNP quencher moiety on the C-terminus (FIG. 1), which was custom-synthesized by LifeTein LLC and handled accordingly to the manufacturer's instructions. Using a final 100 μl reaction volume and black, opaque 96 well plates (Costar), the reagents were added in the following order: 1) OMA1 activity assay buffer (50 mM of Tris/HCl, pH=7.5, 40 mM of KCl), 2) 5 μg of protein sample, 3)+/−200 μM of the zinc chelator N,N,N′,N′-Tetrakis (2-pyridylmethyl)ethylenediamine (TPEN) resuspended in 100% ethanol and lastly, 4) the OPA1 FRET substrate (5 μM final concentration; dissolved in DMSO). Fluorescence was recorded (excitation/emission of 320/405 nm) once per minute for 30 min at 37° C. using a fluorescent plate reader (SpectraMax M2e, Molecular Devices equipped with SoftMax Pro v5 software).
For the statistical analysis, the average fluorescence of the OPA1 FRET substrate alone was measured (<150 relative FLS units) and that value was subtracted from the sample values. The values were reported as a difference of TPEN inhibition [(sample X)−(sample X+TPEN)] where the slopes between 0-30 min were calculated (by linear regression) and each treatment were compared to appropriate controls. Thus, OMA1 activity was calculated by […] to enhance specificity.

OMA1 [4] = biological target: T2, OMA1; experiment: as above; assay type: biochemical; conditions: untreated NRK cell lysates (5 μg), substrate 1-30 μM, Michaelis-Menten
OMA1 [5] = biological target: T2, OMA1; experiment: OMA1 activity assay in rat renal mitochondrial lysates after cold storage / transplantation; assay type: biochemical; conditions: cold storage alone or followed by transplant
Description: Long-term renal function is compromised in patients receiving deceased donor kidneys which require cold storage exposure prior to transplantation. It is established that extended cold storage plus transplantation of kidneys induces renal mitochondrial dysfunction. To assay OMA1 activity under stress conditions known to induce mitochondrial dysfunction an exemplary reporter molecule of the invention was employed in mitochondrial lysates from control kidneys (CTRL), sham surgery (SH), cold storage alone (CS), or cold storage and transplantation (CS/TX) conditions.
Our OMA1 activity assay utilizes an 8-mer peptide derived from the cleavage sequence of OPA1, which is reported to be specific of OMA1 which is referred as the OPA1 FRET substrate. The peptide contains a fluorogenic MCA moiety on the N-terminus and a DNP quencher moiety on the C-terminus (FIG. 1), which was custom-synthesized by LifeTein LLC and handled accordingly to the manufacturer's instructions. […] Fluorescence was recorded (excitation/emission of 320/405 nm) once per minute for 30 min at 37° C. using a fluorescent plate reader (SpectraMax M2e, Molecular Devices equipped with SoftMax Pro v5 software).

[6] = Table 2, slope over 30 min, % comparison to AFRATDHG, 2-3 experiments/substrate
[7] = Table 1, average slope over 30 min compared to AFRATDHG substrate, n = 3

Molecule: antimycin A
OMA1 activity (fluorescence) in live cells (OMA1 [1]): increased OMA1 activity | OMA1 activity (fluorescence) in live cells (OMA1 [1]; listed as AMA): induces OMA1 activity

Molecule: CCOC(=O)[C@H]1O[C@@H]1C(=O)N[C@@H](CC(C)C)C(=O)NCCC(C)C [E64D]
prevention of OMA1-dependent OPA1 cleavage (OMA1 [2]): do not prevent OMA1-dependent OPA1 cleavage

OMA1 Activity (OMA1 [3]; [6]): 35% | decrease of OMA1 activity compared to the standard substrate sequence (OMA1 [3]): 65%
Molecule: AARAAAAA (Mca-AARAAAAA; not fully specified (C-terminus); also: FRET fluorophore and quencher, sites not given here) [FRET substrate with RA motif flanked by alanine residues]

Molecule: CC(C)CC(=O)N[C@H](C(=O)N[C@H](C(=O)N[C@@H](CC(C)C)[C@@H](O)CC(=O)N[C@@H](C)C(=O)N[C@@H](CC(C)C)[C@@H](O)CC(=O)O)C(C)C)C(C)C [pepstatin A] (Isovaleryl-VV[Sta]A[Sta]-OH)
prevention of OMA1-dependent OPA1 cleavage (OMA1 [2]): do not prevent OMA1-dependent OPA1 cleavage

Molecule: CCCCC[C@H](CC(=O)NO)C(=O)N[C@H](C(=O)N1CCC[C@H]1CO)C(C)C [actinonin]
effect on OMA1 activity (slope, FLS/min) (OMA1 [3]; NRK cell lysates, 0.5-1 μM, vs untreated lysates): neither the broad-spectrum MMP inhibitor, batimastat (0.5-1 μM), or the meprin A inhibitor, actinonin (0.5-1 μM), altered OMA1 activity | effect on OMA1 activity (slope, FLS/min) (OMA1 [3]; NRK cell lysates, 0.5-1 μM, vs untreated lysates, listed as Actinonin): Only TPEN reduced OMA1 activity

OMA1 Activity (OMA1 [3]; [6]): 61% | decrease of OMA1 activity compared to the standard substrate sequence (OMA1 [3]): ~40%
Molecule: AFKATDHG (Mca-AFKATDHG; not fully specified (C-terminus); also: FRET fluorophore and quencher) [FRET substrate with Arg changed to Lys]

Molecule: pefabloc/TPCK
prevention of OMA1-dependent OPA1 cleavage (OMA1 [2]): do not prevent OMA1-dependent OPA1 cleavage

fluorescence of FRET peptide without R-A sequence (OMA1 [3]; FRET peptide downstream of cleavage site): abolished fluorescence | OMA1 Activity (OMA1 [3]; [7]): 2.71% | OMA1 Activity (OMA1 [3]; [6]): 2.71%
Molecule: ATDHGSES (Mca-ATDHGSES; not fully specified (C-terminus); also: FRET fluorophore and quencher) [eight amino acid FRET peptide from OPA1 downstream of the cleavage site, no RA motif]

OMA1 Activity (OMA1 [3]; [7]): 100% | OMA1 Activity (OMA1 [3]; [6]): 100% | Vmax for cleavage of the OPA1 FRET substrate (OMA1 [4]): 34.6 FLS/min | Km (OMA1 [4]; read-out: Km for cleavage of the OPA1 FRET substrate): 7.1 µM
Molecule: AFRATDHG (Mca-AFRATDHG-{DNP}) [MCA-AFRATDHG-DNP, eight amino acid OPA1 S1-site peptide with MCA fluorophore on the N-terminus and DNP quencher on the C-terminus]

Molecule: c1ccc(CN(CCN(Cc2ccccn2)Cc2ccccn2)Cc2ccccn2)nc1 [TPEN, N,N,N′,N′-Tetrakis (2-pyridylmethyl)ethylenediamine]
effect on OMA1 activity (slope, FLS/min) (OMA1 [3]; NRK cell lysates with TPEN (200 μM in method) vs untreated lysates): reduced OMA1 activity; also recorded: dramatically decreased fluorescence | effect on reporter fluorescence (FLS) increase (OMA1 [5]): effectively inhibits FLS increase; also recorded: effectively inhibits the reporter molecule activation
